Test results: patent EP0672680A1 (KYOWA HAKKO KOGYO CO., LTD., dated 1995)
Ends that are not written are not given here.

How the values were obtained:
[1] = target: T1, protein-farnesyltransferase derived from bovine brains (bovine, UniProt P29702 2-375; P49355 1-437); assay: cell-based or functional assay
[2] = target: T1, protein-farnesyltransferase derived …; assay: cell-based or functional assay; remark: listed apart in the source

IC50, protein-farnesyltransferase-inhibiting activity (transfer of [3H]-farnesyl diphosphate to v-Ki-Ras p21) [1]	IC50, protein-farnesyltransferase inhibiting activity in SPA enzyme assay kit (intake of [3H]-farnesyl diphosphate by biotin-lamin-B peptide) [2]	Binder
19 µM		VYAVTGRGDSPAAFGGRIDRIGAA-OH (not fully specified (bridges); also: cyclic amide Gly alpha-amino to Asp side chain, places unclear) [compound (5)]
0.56 µM	0.42 µM	VYAVTGRGDSPASSGCVLS-OH (not fully specified (bridges); also: cyclic amide Gly alpha-amino to Asp side chain, places unclear) [compound (3)]
9 µM		VYAVTGRGDSPAFGGRIDRI-OH (not fully specified (bridges); also: cyclic amide Gly alpha-amino to Asp side chain, places unclear) [compound (4)]
